Measurements from patent US20250361268A1, “NOVEL ANTI-INFLAMMATORY PEPTIDE AND USE THEREOF” (NOVACELL TECHNOLOGY INC., priority 2022, published 2025).

T1: formyl peptide receptor 2 (FPR2) (UniProt P25090 1-351, limits assumed)
T1 sequence (looked up): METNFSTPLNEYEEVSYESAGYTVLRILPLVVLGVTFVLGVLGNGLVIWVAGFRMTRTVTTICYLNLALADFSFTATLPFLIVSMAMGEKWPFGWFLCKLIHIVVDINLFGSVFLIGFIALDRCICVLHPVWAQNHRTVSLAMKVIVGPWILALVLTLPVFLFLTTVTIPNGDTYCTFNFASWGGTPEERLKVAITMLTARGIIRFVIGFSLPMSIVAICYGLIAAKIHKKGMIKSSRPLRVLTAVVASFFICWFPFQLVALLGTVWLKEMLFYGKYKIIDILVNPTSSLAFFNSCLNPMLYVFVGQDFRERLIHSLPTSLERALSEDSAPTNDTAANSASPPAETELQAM

T2: FPR1 (UniProt P21462 1-350, limits assumed)
T2 sequence (looked up): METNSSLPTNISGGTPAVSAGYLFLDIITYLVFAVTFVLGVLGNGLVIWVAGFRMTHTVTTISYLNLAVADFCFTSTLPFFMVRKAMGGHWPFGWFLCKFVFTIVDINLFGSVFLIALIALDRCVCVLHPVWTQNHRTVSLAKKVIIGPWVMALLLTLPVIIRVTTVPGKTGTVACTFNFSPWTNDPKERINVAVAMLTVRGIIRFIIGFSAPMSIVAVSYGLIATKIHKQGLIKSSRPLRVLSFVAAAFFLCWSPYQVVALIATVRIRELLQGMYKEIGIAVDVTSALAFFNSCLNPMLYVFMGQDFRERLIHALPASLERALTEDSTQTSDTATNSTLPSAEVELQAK


Assays:
[1] = molecular target: T1, formyl peptide receptor 2 (FPR2); experiment: cell-based or functional assay
[2] = molecular target: T2, FPR1; experiment: cell-based or functional assay

Binder | EC50 for [Ca2+] [1] | EC50 for [Ca2+] [2]
PMRYKPM (HELM PEPTIDE1{[ac].P.M.R.Y.K.P.[dM].[am]}$$$$V2.0; SMILES CSCC[C@H](NC(=O)[C@@H]1CCCN1C(C)=O)C(=O)N[C@@H](CCCNC(=N)N)C(=O)N[C@@H](Cc1ccc(O)cc1)C(=O)N[C@@H](CCCCN)C(=O)N1CCC[C@H]1C(=O)N[C@H](CCSC)C(N)=O) [peptide of SEQ ID NO 63] | < 0.01 µM | > 10 µM
RMRYKPM (HELM PEPTIDE1{[CCCC(=O)[*:2]].R.M.R.Y.K.P.[dM].[am]}$$$$V2.0; SMILES CCCC(=O)N[C@@H](CCCNC(=N)N)C(=O)N[C@@H](CCSC)C(=O)N[C@@H](CCCNC(=N)N)C(=O)N[C@@H](Cc1ccc(O)cc1)C(=O)N[C@@H](CCCCN)C(=O)N1CCC[C@H]1C(=O)N[C@H](CCSC)C(N)=O) [peptide of SEQ ID NO 52] | < 0.01 µM | > 10 µM
PMRYKPM (HELM PEPTIDE1{[CCCCCCCC(=O)[*:2]].P.M.R.Y.K.P.[dM].[am]}$$$$V2.0; SMILES CCCCCCCC(=O)N1CCC[C@H]1C(=O)N[C@@H](CCSC)C(=O)N[C@@H](CCCNC(=N)N)C(=O)N[C@@H](Cc1ccc(O)cc1)C(=O)N[C@@H](CCCCN)C(=O)N1CCC[C@H]1C(=O)N[C@H](CCSC)C(N)=O) [peptide of SEQ ID NO 65] | < 0.01 µM | > 10 µM
RMRYKPM (HELM PEPTIDE1{R.M.R.Y.K.P.[dM].[am]}$$$$V2.0; N-terminus assumed; SMILES CSCC[C@H](NC(=O)[C@@H](N)CCCNC(=N)N)C(=O)N[C@@H](CCCNC(=N)N)C(=O)N[C@@H](Cc1ccc(O)cc1)C(=O)N[C@@H](CCCCN)C(=O)N1CCC[C@H]1C(=O)N[C@H](CCSC)C(N)=O) [peptide of SEQ ID NO 50] | < 0.01 µM | > 10 µM
RMRYKPM (HELM PEPTIDE1{[CCCCCCCC(=O)[*:2]].R.M.R.Y.K.P.[dM].[am]}$$$$V2.0; SMILES CCCCCCCC(=O)N[C@@H](CCCNC(=N)N)C(=O)N[C@@H](CCSC)C(=O)N[C@@H](CCCNC(=N)N)C(=O)N[C@@H](Cc1ccc(O)cc1)C(=O)N[C@@H](CCCCN)C(=O)N1CCC[C@H]1C(=O)N[C@H](CCSC)C(N)=O) [peptide of SEQ ID NO 53] | < 0.01 µM | > 10 µM
MRYKPM (HELM PEPTIDE1{M.R.Y.K.P.[dM].[am]}$$$$V2.0; N-terminus assumed; SMILES CSCC[C@H](N)C(=O)N[C@@H](CCCNC(=N)N)C(=O)N[C@@H](Cc1ccc(O)cc1)C(=O)N[C@@H](CCCCN)C(=O)N1CCC[C@H]1C(=O)N[C@H](CCSC)C(N)=O) [peptide of SEQ ID NO 54] | < 0.01 µM | > 10 µM
RMRYKVM (HELM PEPTIDE1{[CCCC(=O)[*:2]].R.M.R.Y.K.V.[dM].[am]}$$$$V2.0; SMILES CCCC(=O)N[C@@H](CCCNC(=N)N)C(=O)N[C@@H](CCSC)C(=O)N[C@@H](CCCNC(=N)N)C(=O)N[C@@H](Cc1ccc(O)cc1)C(=O)N[C@@H](CCCCN)C(=O)N[C@H](C(=O)N[C@H](CCSC)C(N)=O)C(C)C) [peptide of SEQ ID NO 7] | < 0.01 µM | > 10 µM
PMRYKPM (HELM PEPTIDE1{[CCCC(=O)[*:2]].P.M.R.Y.K.P.[dM].[am]}$$$$V2.0; SMILES CCCC(=O)N1CCC[C@H]1C(=O)N[C@@H](CCSC)C(=O)N[C@@H](CCCNC(=N)N)C(=O)N[C@@H](Cc1ccc(O)cc1)C(=O)N[C@@H](CCCCN)C(=O)N1CCC[C@H]1C(=O)N[C@H](CCSC)C(N)=O) [peptide of SEQ ID NO 64] | < 0.01 µM | > 10 µM
PMRYKPM (HELM PEPTIDE1{P.M.R.Y.K.P.[dM].[am]}$$$$V2.0; N-terminus assumed; SMILES CSCC[C@H](NC(=O)[C@@H]1CCCN1)C(=O)N[C@@H](CCCNC(=N)N)C(=O)N[C@@H](Cc1ccc(O)cc1)C(=O)N[C@@H](CCCCN)C(=O)N1CCC[C@H]1C(=O)N[C@H](CCSC)C(N)=O) [peptide of SEQ ID NO 62] | < 0.01 µM | > 10 µM
HMRYKPM (HELM PEPTIDE1{[CCCCCCCC(=O)[*:2]].H.M.R.Y.K.P.[dM].[am]}$$$$V2.0; SMILES CCCCCCCC(=O)N[C@@H](Cc1c[nH]cn1)C(=O)N[C@@H](CCSC)C(=O)N[C@@H](CCCNC(=N)N)C(=O)N[C@@H](Cc1ccc(O)cc1)C(=O)N[C@@H](CCCCN)C(=O)N1CCC[C@H]1C(=O)N[C@H](CCSC)C(N)=O) [peptide of SEQ ID NO 61] | < 0.01 µM | > 10 µM
MRYKPM (HELM PEPTIDE1{[ac].M.R.Y.K.P.[dM].[am]}$$$$V2.0; SMILES CSCC[C@H](NC(C)=O)C(=O)N[C@@H](CCCNC(=N)N)C(=O)N[C@@H](Cc1ccc(O)cc1)C(=O)N[C@@H](CCCCN)C(=O)N1CCC[C@H]1C(=O)N[C@H](CCSC)C(N)=O) [peptide of SEQ ID NO 55] | < 0.01 µM | > 10 µM
RMRYKVM (HELM PEPTIDE1{[ac].R.M.R.Y.K.V.[dM].[am]}$$$$V2.0; SMILES CSCC[C@H](NC(=O)[C@H](CCCNC(=N)N)NC(C)=O)C(=O)N[C@@H](CCCNC(=N)N)C(=O)N[C@@H](Cc1ccc(O)cc1)C(=O)N[C@@H](CCCCN)C(=O)N[C@H](C(=O)N[C@H](CCSC)C(N)=O)C(C)C) [peptide of SEQ ID NO 6] | < 0.01 µM | > 10 µM
MRYKPM (HELM PEPTIDE1{[CCCCCCCC(=O)[*:2]].M.R.Y.K.P.[dM].[am]}$$$$V2.0; SMILES CCCCCCCC(=O)N[C@@H](CCSC)C(=O)N[C@@H](CCCNC(=N)N)C(=O)N[C@@H](Cc1ccc(O)cc1)C(=O)N[C@@H](CCCCN)C(=O)N1CCC[C@H]1C(=O)N[C@H](CCSC)C(N)=O) [peptide of SEQ ID NO 57] | < 0.01 µM | > 10 µM
MRYKPM (HELM PEPTIDE1{[CCCC(=O)[*:2]].M.R.Y.K.P.[dM].[am]}$$$$V2.0; SMILES CCCC(=O)N[C@@H](CCSC)C(=O)N[C@@H](CCCNC(=N)N)C(=O)N[C@@H](Cc1ccc(O)cc1)C(=O)N[C@@H](CCCCN)C(=O)N1CCC[C@H]1C(=O)N[C@H](CCSC)C(N)=O) [peptide of SEQ ID NO 56] | < 0.01 µM | > 10 µM
HMRYKPM (HELM PEPTIDE1{[ac].H.M.R.Y.K.P.[dM].[am]}$$$$V2.0; SMILES CSCC[C@H](NC(=O)[C@H](Cc1c[nH]cn1)NC(C)=O)C(=O)N[C@@H](CCCNC(=N)N)C(=O)N[C@@H](Cc1ccc(O)cc1)C(=O)N[C@@H](CCCCN)C(=O)N1CCC[C@H]1C(=O)N[C@H](CCSC)C(N)=O) [peptide of SEQ ID NO 59] | < 0.01 µM | > 10 µM
HMRYKPM (HELM PEPTIDE1{[CCCC(=O)[*:2]].H.M.R.Y.K.P.[dM].[am]}$$$$V2.0; SMILES CCCC(=O)N[C@@H](Cc1c[nH]cn1)C(=O)N[C@@H](CCSC)C(=O)N[C@@H](CCCNC(=N)N)C(=O)N[C@@H](Cc1ccc(O)cc1)C(=O)N[C@@H](CCCCN)C(=O)N1CCC[C@H]1C(=O)N[C@H](CCSC)C(N)=O) [peptide of SEQ ID NO 60] | < 0.01 µM | > 10 µM
HMRYKPM (HELM PEPTIDE1{H.M.R.Y.K.P.[dM].[am]}$$$$V2.0; N-terminus assumed; SMILES CSCC[C@H](NC(=O)[C@@H](N)Cc1c[nH]cn1)C(=O)N[C@@H](CCCNC(=N)N)C(=O)N[C@@H](Cc1ccc(O)cc1)C(=O)N[C@@H](CCCCN)C(=O)N1CCC[C@H]1C(=O)N[C@H](CCSC)C(N)=O) [peptide of SEQ ID NO 58] | < 0.01 µM | > 10 µM
RMRYKPM (HELM PEPTIDE1{[ac].R.M.R.Y.K.P.[dM].[am]}$$$$V2.0; SMILES CSCC[C@H](NC(=O)[C@H](CCCNC(=N)N)NC(C)=O)C(=O)N[C@@H](CCCNC(=N)N)C(=O)N[C@@H](Cc1ccc(O)cc1)C(=O)N[C@@H](CCCCN)C(=O)N1CCC[C@H]1C(=O)N[C@H](CCSC)C(N)=O) [peptide of SEQ ID NO 51] | < 0.01 µM | > 10 µM
